Test results: the supplement of paper PMC9732359
± gives the uncertainty stated by the source.

Assay: protein stability index of a GFP-peptide fusion (yeast GPS) (PSI 1-4); higher = more stable; sorted into four equal gates, so the index is relative within each strain
In short: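 The protein stability index of a peptide was calculated by multiplying its read frequency in each gate by that gate's number and adding the products. The peptides were tiled 17-residue stretches of yeast proteins, fused downstream of GFP on a Cherry-expressing plasmid and carried in yeast as a pooled library. Mid-log cultures in leucine-free medium were sorted into four equal gates by GFP/Cherry ratio, and each gate's plasmids were PCR-amplified and Illumina-sequenced.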

| Sequence | protein stability index (doa10∆) | protein stability index (pdr5∆) | protein stability index (san1∆) | protein stability index (ubr1∆) |
| --- | --- | --- | --- | --- |
| LQPFYSQPTAAGGPDMT [DSN1] | 1.54 ± 0.049 | 1.51 ± 0.047 | 1.88 ± 0.077 | 1.62 ± 0.039 |
| LQPIKGESARRFQKCFP [RPC40] |  | 3 ± 0.25 |  |  |
| LRAHTDDSRNPDCKIKI [PRE2] | 2.86 ± 0.073 | 2.92 ± 0.12 | 2.86 ± 0.085 | 2.77 ± 0.11 |
| LRASFNKLSSILQNEHD [SRB4] | 2.1 ± 0.1 | 2.22 ± 0.069 | 1.52 ± 0.14 | 2.49 ± 0.053 |
| LRDESLTVDNLSIAIVG [PRE5] | 2.65 ± 0.075 | 2.26 ± 0.066 | 2.5 ± 0.06 | 2.93 ± 0.051 |
| LREHFKNTEEGKALVHH [QCR6] | 2.87 ± 0.11 | 3.23 ± 0.1 | 3.34 ± 0.057 | 3.09 ± 0.099 |
| LRKSRETVKLPRVSNQS [RRI2] |  | 3.42 ± 0.22 |  |  |
| LRLFNAPDSEYLCFILS [SNF2] | 2.28 ± 0.044 | 2.17 ± 0.044 | 2.15 ± 0.042 | 1.94 ± 0.031 |
| LRLKLFLYEILSSLKSF [SRB8] | 1.53 ± 0.063 | 2.29 ± 0.082 | 1.81 ± 0.082 | 2.11 ± 0.085 |
| LRLTDVTNSLSNEEKEK [GAL11] | 3.14 ± 0.12 | 3.17 ± 0.12 | 2.52 ± 0.15 | 3.3 ± 0.12 |
| LRNNLNSLIEEINERSE [YCG1] | 3.13 ± 0.094 | 3.31 ± 0.095 | 2.96 ± 0.075 | 3.01 ± 0.073 |
| LRPGRIDRKVEFSLPDL [RPT1] | 3.19 ± 0.098 | 3.35 ± 0.098 | 3.2 ± 0.16 | 3.18 ± 0.098 |
| LRRGNYAQRIGSGAPVY [HTA1] | 2.19 ± 0.21 | 2.86 ± 0.17 | 2.4 ± 0.26 |  |
| LRRIITDLNQDSAAIIA [GRR1] | 2.64 ± 0.075 | 2.31 ± 0.068 | 2.6 ± 0.064 | 2.55 ± 0.053 |
| LRSIYHQFHDILEEKTD [NSL1] | 2.22 ± 0.062 | 2.07 ± 0.047 | 2.18 ± 0.074 | 2.04 ± 0.04 |
| LSAENIEERLVAIAEQD [SCL1] | 3.22 ± 0.083 | 3.18 ± 0.089 | 3.33 ± 0.061 | 3.32 ± 0.066 |
| LSASWDKTLRLWDVATG [ASC1] | 3.52 ± 0.22 | 3.22 ± 0.12 |  | 3.41 ± 0.072 |
| LSEIESLDEILLPANLL [SRP68] | 3.14 ± 0.053 | 3.08 ± 0.052 | 3.02 ± 0.042 | 3.037 ± 0.027 |
| LSESDKKSKLISLYLLN [RPN12] | 2.21 ± 0.17 | 3 ± 0.1 | 2.07 ± 0.21 | 2.31 ± 0.063 |
| LSFIQVRIDLGTIDKLQ [RPO31] | 1.37 ± 0.056 | 1.71 ± 0.056 | 2.06 ± 0.077 | 2.67 ± 0.047 |
| LSFVDIVLSKAASALDE [SIR4] | 1.84 ± 0.11 | 2.8 ± 0.071 | 2.59 ± 0.14 | 2.21 ± 0.054 |

| Sequence | protein stability index (doa10∆) | protein stability index (pdr5∆) | protein stability index (san1∆) | protein stability index (ubr1∆) |
| --- | --- | --- | --- | --- |
| LSLDSDVKFPSNTTTQI [SMC3] | 2.9 ± 0.25 | 3.37 ± 0.14 | 2.81 ± 0.15 | 3.32 ± 0.18 |
| LSLHENYPQDEINAVFN [POP1] | 2.97 ± 0.067 | 3.11 ± 0.056 | 3.05 ± 0.04 | 3 ± 0.059 |
| LSPSDQFAPAFLNTPNN [SSN2] | 1.96 ± 0.069 | 2.23 ± 0.1 | 2.06 ± 0.13 | 2.44 ± 0.098 |
| LSSETGIKLALDPNLIT [SRB4] | 2.6 ± 0.052 | 3 ± 0.054 | 2.92 ± 0.056 | 2.51 ± 0.034 |
| LSSGESNEIKVTNDLDT [SIR4] | 2.94 ± 0.16 | 2.97 ± 0.12 | 2.88 ± 0.22 | 2.52 ± 0.08 |
| LSSIEASLKIKNATDLQ [SMC3] | 1.84 ± 0.064 | 2.06 ± 0.091 | 2.56 ± 0.12 | 2.4 ± 0.077 |
| LSTLRMEADPSLHPLFE [RPN9] | 2.54 ± 0.057 | 2.33 ± 0.042 | 2.18 ± 0.096 | 2.41 ± 0.044 |
| LSTRELAGKVGSIRVHK [RPC53] | 1.61 ± 0.18 | 1.26 ± 0.11 |  |  |
| LSVDDIRGAVGNSEAIP [RTT102] | 3.35 ± 0.053 | 3.38 ± 0.057 | 3.3 ± 0.056 | 3.41 ± 0.047 |
| LTCLPVPPPPVRPSISF [RPO21] | 2.28 ± 0.03 | 2.44 ± 0.031 | 2.36 ± 0.033 | 2.33 ± 0.026 |
| LTFMTCNSLHIPQDFEN [ESC2] | 2.17 ± 0.045 | 2.46 ± 0.047 | 2.19 ± 0.089 | 2.66 ± 0.04 |
| LTFQPQQQTNALNGIDI [GRR1] | 2.84 ± 0.067 | 3.07 ± 0.075 | 3.02 ± 0.082 | 3.1 ± 0.056 |
| LTGEATANALPLPAVFS [RPL4A] | 2.02 ± 0.052 | 2.36 ± 0.047 | 2.35 ± 0.068 | 2.71 ± 0.038 |
| LTHRLGGDTCSSDGALC [POP1] | 2.96 ± 0.11 | 3.39 ± 0.084 | 3.17 ± 0.12 | 3.19 ± 0.054 |
| LTIDDLGVASFHGTSTK [FAS2] | 2.99 ± 0.063 | 3.01 ± 0.071 | 3.03 ± 0.06 | 3.01 ± 0.047 |
| LTKTTVNISAVDNTTEQ [YCG1] | 3.25 ± 0.11 | 3.29 ± 0.14 | 2.88 ± 0.1 | 3.24 ± 0.098 |
| LTKYKEMERIVKNLTKY [SRP68] | 2.96 ± 0.069 | 2.85 ± 0.073 | 2.82 ± 0.04 | 2.78 ± 0.041 |
| LTLRKAKAPSGLDQSRI [FAS1] | 3.05 ± 0.12 | 2.98 ± 0.11 | 3.17 ± 0.12 | 3.13 ± 0.081 |
| LTLYLFQDYLTQQAVNL [IRR1] | 2.15 ± 0.095 | 1.91 ± 0.067 | 2.06 ± 0.15 | 2.17 ± 0.099 |
| LTNDTFEKKLSIIKAKL [YML103C/NUP188] | 2.8 ± 0.11 | 2.99 ± 0.23 | 2.43 ± 0.21 | 3.3 ± 0.19 |
